Laboratory results: article PMC3086013 (Biochemistry, 2010)

B1: seipin-myc13 (yeast seipin fused to 13 tandem copies of the myc epitope) (natural protein, S. cerevisiae, UniProt Q06058 1-285, looked up)
chain: MKINVSRPLQFLQWSSYIVVAFLIQLLIILPLSILIYHDFYLRLLPADSSNVVPLNTFNILNGVQFGTKFFQSIKSIPVGTDLPQTIDNGLSQLIPMRDNMEYKLDLNLQLYCQSKTDHLNLDNLLIDVYRGPGPLLGAPGGSNSKDEKIFHTSRPIVCLALTDSMSPQEIEQLGPSRLDVYDEEWLNTIRIEDKISLESSYETISVFLKTEIAQRNLIIHPESGIKFRMNFEQGLRNLMLRKRFLSYIIGISIFHCIICVLFFITGCTAFIFVRKGQEKSKKHS
B2: seipin-mCherry (yeast seipin tagged at its carboxy terminus with mCherry) (natural protein, S. cerevisiae, UniProt Q06058 1-285, looked up)
chain: B1 chain

Target: the molecule itself
Test: velocity sedimentation on H2O- and D2O-sucrose gradients + SEC

Protein | stoichiometry N
B1 | 9.4 subunits/complex
B2 | 8.7 subunits/complex
